Data reported in US12441811B2, “Compositions and methods for treating serpin B13 disorders” (REGENTS OF THE UNIVERSITY OF MINNESOTA, priority 2019, dated 2025).

Columns and labels:
catL [1] = assay: catL protease activity in cell extract from pancreatic tissue in vitro; type: biochemical; conditions: mAb added to cell extract from pancreatic tissue in vitro
[2] = test system: pancreatic islets and β-cells; assay: Follow-up of healthy offspring with gestational exposure to anti-serpinB13 mAb; type: in vivo, mouse; conditions: for β-cell mass per animal (islet mass): offspring
Description: The control mouse mAb (clone TIB92) was from ATCC (Manassas, VA, USA). The recombinant human control Ab (cat. No 403502) was from BioLegend (San Diego, CA). In most of the experiments, anti-serpinB13 mAb (clone B29) or control mouse mAb was injected i.p. into pregnant female mice at 50 μg for four consecutive days, starting at gestational day E10.5 (total dose of 200 μg). In the lineage tracing experiments in adult mice, B29 was injected i.p. for 7 days at 100 μg/injection during the first week after STZ treatment (total dose of 700 μg).
Preparation of the islets and single islet-cell suspensions. The adult pancreases were subjected to digestion with collagenase P and passed through the 100-μm strainers to separate the islets from debris. The blindly digested pancreatic samples were manually counted for the number of pancreatic islets under a dissecting microscope with a warm halogen light from below. The islets were defined as any visible, distinct cluster of cells with smooth edges and light- to dark-brown glowing color and diameter greater than 100 μm. The hand-picked islets were then dispersed with CellStripper (cat. no. 25-056-CI; Corning, Corning, NY). The cells were fixed and permeabilized, using the Foxp3/Transcription Factor Staining Buffer Set to permit intracellular staining.
(§1) Calculation of the islet mass. In embryos, the β-cell mass was expressed as the percentage of the area of all pancreatic sections combined, that positively stained with anti-insulin antibody. To calculate β-cell mass in adult mice, the percentage insulin-positive area was multiplied by the pancreas weight expressed in milligrams.
Estimating the number of islets and islet cells. The islets were manually counted under a dissecting microscope. To estimate the number of α and β cells, the islet cells were dispersed, intracellularly stained with antibodies to […], respectively, and their counts measured by FACS.

catL [3] = assay: catL activity in vivo with activity-based probe ProSense 680; design: species or system mouse
Description: CatL has been implicated as a serpinB13 protease target. To examine the consequences of inhibiting serpinB13 using a mAb (clone B29), the catalytic activity of catL was measured. […] To measure catL activity in vivo, the activity-based probe, ProSense 680, was used. […] This increase was limited to the pancreas in wild-type Balb/c mice and was not observed in the liver, where serpinB13 is not expressed, or in the pancreas of catL-deficient Balb/c mice.

[4] = test system: streptozotocin-induced diabetes; assay: STZ-induced diabetes in adult offspring with gestational exposure to anti-serpinB13 mAb; type: in vivo, mouse; conditions: for preserved residual β-cell mass: 4 weeks after STZ 150 mg/kg in adulthood; for preserved residual β-cell mass / diabetes / severity of the disease: prenatal exposure; for diabetes / severity of the disease: STZ injected in adulthood, vs control antibody
Description: as §1
Diabetes induction and monitoring. C57BL/6 male mice, which are susceptible to STZ-induced diabetes, were subjected to a 6-hour period of bedding removal and fasting with unlimited access to drinking water. At the end of fasting, STZ was dissolved in a freshly prepared buffer (50 mM Sodium Citrate, pH 4.5) and immediately injected i.p. at 150 mg/kg. The glucose levels in tail blood were measured at random every 7 days for 4 weeks. Alternatively, to perform the glucose tolerance test, STZ-treated C57BL/6J male mice were first fasted for 6 hours with unlimited access to drinking water, and then injected i.p. with a 10% D-(+)-glucose solution (10 μL/g body weight). A glucometer (One-Touch Ultra) was used to monitor glucose levels using tail blood collected before glucose injection, and after injection at 30-min intervals for 2 hours. For glucometer glucose readings “above 600 mg/dL”, the data were extrapolated to the value of 700 mg/dL for algebraic statistical purposes only.

pancreatic islets = conditions: cited from earlier work
[5] = 8-week old offspring, prenatal exposure

B1: B29: mouse monoclonal antibody to serpin B13, clone B29; heavy chain SEQ ID NO:14, kappa light chain SEQ ID NO:16 (antibody, V domains shown)
VH: QIQLVQSGPELKKPGETVKISCKASGYTFTTYGMSWVKQAPGKGLKWMGWINTYSGMPTYADDFKGRFAFSLETSATTAYLQINNLKNEDTATYFCARPLLGLDYWGQGTTLTVSS
VL: DIVMTQTPLSLSVTIGQPASISCKSSQSLLHSDGKTFLNWFLQRPGQSPKLLIYLVSKLESGIPDRFSGSGSGTDFTLKISRVEVEDLGVYYCLQHTHFPLTFGAGTKLEIK
catL [1]
  protease activity of catL: dose-dependently enhanced
[2]; [5]
  number of pancreatic islets: significant increase
  total β-cell number: significant increase
  α-cell population: significantly increased
[2]; at birth and in adulthood, vs control group
  total pancreas and body weight: remained the same
[2]; prenatal exposure, listed as anti-serpinB13 antibody
  β-cell mass per animal (islet mass): increased
[2]; prenatal exposure, listed as anti-serpinB13 mAb
  β-cell mass per animal (islet mass): significant increase
[2]; prenatal exposure, listed as mAb
  β-cell mass per animal (islet mass): significant expansion
catL [3]; catL-deficient Balb/c mice
  increase in catL activity in the pancreas of catL-deficient mice: not observed
catL [3]; liver, where serpinB13 is not expressed
  increase in catL activity in the liver: not observed
catL [3]; summary statement, setting not specified
  catL activity: augmented
catL [3]; wild-type Balb/c mice, after injection of mAb, ProSense 680
  catL activity in the intact pancreas: significant increase
[4]; 1-4 weeks after STZ
  loss of body weight: prevented
[4]; 4 weeks after STZ
  serum creatinine as a measure of renal function: improved
[4]; listed as anti-serpinB13 mAb
  preserved residual β-cell mass: over two-fold greater
  diabetes / severity of the disease: either completely protected against diabetes (FIG. 24A-24B), or ameliorated the severity of the disease
[4]; listed as serpinB13 mAb
  preserved residual β-cell mass: higher
  diabetes / severity of the disease: reduced severity of disease
[4]
  diabetes / severity of the disease: helped to prevent severe diabetes
[4]; listed as anti-serpinB13 antibody
  diabetes / severity of the disease: improved outcomes
[4]; listed as mAb
  diabetes / severity of the disease: improved resistance
[4]; ipGTT at 2 weeks, random glucose 1-4 weeks after STZ
  blood glucose control: improved
Pancreatic islets; coadministration with a suboptimal dose of anti-CD3 mAb
  recovery from diabetes: accelerated
Pancreatic islets; injection
  Reg gene expression: enhanced
  beta cell mass: increase
  beta cell proliferation: enhanced
  generation of pancreatic islets: ~80 pancreatic islets per animal
Pancreatic islets; mice, mAb alone
  islet inflammation: decreased
